According to patent publication US20220323607A1, “SYNTHETIC NANOCARRIERS COMPRISING AN IMMUNOSUPPRESSANT IN COMBINATION WITH HIGH AFFINITY IL-2 RECEPTOR AGONISTS TO ENHANCE IMMUNE TOLERANCE” (Selecta Biosciences, Inc., priority 2021, published 2022):

Tested on: Ovalbumin-specific OTII T cells
Assay: Adoptive transfer of ovalbumin-specific OTII T cells, Foxp3 expression (Example 5)
Format: in vivo
Conditions: mice with adoptively transferred OTII T cells; starting from ~3%
Protocol: However, expansion of antigen-specific Treg can be more desirable than expansion of total Treg. The ability of ImmTOR plus antigen combined with IL-2 mutein to induce and/or expand antigen-specific Treg was evaluated. Ovalbumin-specific OTII T cells were adoptively transferred into mice prior to treatment with ovalbumin and ImmTOR and/or IL-2 mutein.

B1: ovalbumin (protein, UniProt P01012 2-386, looked up)
Ovalbumin: GSIGAASMEFCFDVFKELKVHHANENIFYCPIAIMSALAMVYLGAKDSTRTQINKVVRFDKLPGFGDSIEAQCGTSVNVHSSLRDILNQITKPNDVYSFSLASRLYAEERYPILPEYLQCVKELYRGGLEPINFQTAADQARELINSWVESQTNGIIRNVLQPSSVDSQTAMVLVNAIVFKGLWEKAFKDEDTQAMPFRVTEQESKPVQMMYQIGLFRVASMASEKMKILELPFASGTMSMLVLLPDEVSGLEQLESIINFEKLTEWTSSNVMEERKIKVYLPRMKMEEKYNLTSVLMAMGITDVFSSSANLSGISSAESLKISQAVHAAHAEINEAGREVVGSAEAGVDAASVSEEFRADHPFLFCIKHIATNAVLFFGRCVSP
In the case of B1, the “percentage of Foxp3+ OTII cells” value is reported as about 6%.
